Data on 1 protein can be found in US20230189844.

The target of series [1] is T1, Soy Bowman-Birk Inhibitor, P01055.
T1 chain: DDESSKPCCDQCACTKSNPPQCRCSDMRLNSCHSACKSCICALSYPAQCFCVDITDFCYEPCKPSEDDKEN

In series [2] the target is T2, Soy Kunitz Inhibitor (Trypsin Inhibitor from soybean), P01070.
T2 chain: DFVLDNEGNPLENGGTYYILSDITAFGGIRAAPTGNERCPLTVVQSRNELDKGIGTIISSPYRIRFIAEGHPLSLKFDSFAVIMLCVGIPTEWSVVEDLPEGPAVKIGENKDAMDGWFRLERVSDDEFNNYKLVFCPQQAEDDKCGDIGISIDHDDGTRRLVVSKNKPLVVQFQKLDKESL

For series [3], the target named is Soybean agglutinin (SBA), P05046.
Soybean agglutinin (SBA), P05046, sequence (P05046 33-285): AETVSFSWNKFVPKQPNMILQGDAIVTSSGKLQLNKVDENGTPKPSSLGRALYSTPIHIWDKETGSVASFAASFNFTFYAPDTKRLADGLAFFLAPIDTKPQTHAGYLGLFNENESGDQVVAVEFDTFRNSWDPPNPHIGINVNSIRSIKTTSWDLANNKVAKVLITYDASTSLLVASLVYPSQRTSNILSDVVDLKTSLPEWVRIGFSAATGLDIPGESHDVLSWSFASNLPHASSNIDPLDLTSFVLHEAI

B1: Protease derived from Nocardiopsis sp. NRRL 18262 (an acid-stable protease) (protein)
chain: ADIIGGLAYTMGGRCSVGFAATNAAGQPGFVTAGHCGRVGTQVTIGNGRGVFEQSVFPGNDAAFVRGTSNFTLTNLVSRYNTGGYATVAGHNQAPIGSSVCRSGSTTGWHCGTIQARGQSVSYPEGTVTNMTRTTVCAEPGDSGGSYISGTQAQGVTSGGSGNCRTGGTTFYQEVTPMVNSWGVRLRT
For the protein B1, the % of anti-nutritional factor degraded (SDS-PAGE band disappearance, 2 hours, 37° C., pH 6.5) is 25% in series [1], 100% in series [2] and 75% in series [3].
